Source: patent US20230357367A1 (GENERATE BIOMEDICINES, published 2023)
Like-named read-outs stand apart in the source and are kept apart here.

What was measured:
Experiment in all cases: cell-based or functional assay
[1] = target: SARS-CoV-2 D614G Spike on pseudovirus (SARS-CoV-2, UniProt P0DTC2 14-1273)
[2] = target: T1, SARS-CoV-2 Omicron BA.2 Spike on pseudovirus (SARS-CoV-2)
[3] = target: T2, SARS-CoV-2 Delta Spike on virus particles (SARS-CoV-2)
[4] = target: T3, SARS-CoV-2 Omicron BA.4/5 Spike on pseudovirus (SARS-CoV-2)
[5] = target: T3, SARS-CoV-2 Omicron BA.4/5 Spike on …; remark: listed apart in the source
[6] = target: SARS-CoV-2 Omicron BA.4/5+K444T Spike on pseudovirus (SARS-CoV-2)
[7] = target: T1, SARS-CoV-2 Omicron BA.2 Spike on …; remark: listed apart in the source
[8] = target: T2, SARS-CoV-2 Delta Spike on virus …; remark: listed apart in the source
[9] = target: T4, SARS-CoV-2 Omicron BA.1 Spike on virus particles (SARS-CoV-2)
[10] = target: T5, SARS-CoV-2 Omicron BA.2.12.1 Spike on pseudovirus (SARS-CoV-2)
[11] = target: T3, SARS-CoV-2 Omicron BA.4/5 Spike on …; remark: listed apart in the source
[12] = target: T1, SARS-CoV-2 Omicron BA.2 Spike on …; remark: listed apart in the source
[13] = target: T2, SARS-CoV-2 Delta Spike on virus …; remark: listed apart in the source
[14] = target: T4, SARS-CoV-2 Omicron BA.1 Spike on virus …; remark: listed apart in the source
[15] = target: T5, SARS-CoV-2 Omicron BA.2.12.1 Spike on …; remark: listed apart in the source
[16] = target: T3, SARS-CoV-2 Omicron BA.4/5 Spike on …; remark: listed apart in the source
[17] = target: T2, SARS-CoV-2 Delta Spike on virus …; remark: listed apart in the source
[18] = target: T4, SARS-CoV-2 Omicron BA.1 Spike on virus …; remark: listed apart in the source
[19] = target: T5, SARS-CoV-2 Omicron BA.2.12.1 Spike on …; remark: listed apart in the source

Binder	EC50, pseudovirus neutralization on TMPRSS2-Vero E6 cells [1] [µg/mL]	IC50, pseudovirus neutralization [2] [µg/mL]	IC50, pseudovirus neutralization [3] [µg/mL]	IC50, pseudovirus neutralization [4] [µg/mL]	Neutralization - IC50, pseudovirus [5] [µg/mL]	Neutralization - IC50, pseudovirus [6] [µg/mL]	% neutralization at 4.5 µg/ml, pseudovirus [7] [%]	% neutralization at 4.5 µg/ml, pseudovirus [8] [%]	% neutralization at 4.5 µg/ml, pseudovirus [9] [%]	% neutralization at 4.5 µg/ml, pseudovirus [10] [%]	% neutralization at 4.5 µg/ml, pseudovirus [11] [%]	IC50, pseudovirus neutralization [12] [µg/mL]	IC50, pseudovirus neutralization [13] [µg/mL]	IC50, pseudovirus neutralization [14] [µg/mL]	IC50, pseudovirus neutralization [15] [µg/mL]	IC50, pseudovirus neutralization [16] [µg/mL]	IC50, live virus neutralization [17] [µg/mL]	IC50, live virus neutralization [18] [µg/mL]	IC50, pseudovirus neutralization [19] [µg/mL]
AB-1 (antibody, V domains shown) VH: EVQLVESGAEVKKPGESLKISCKGSGYTFTRYWIGWVRQMPGKGLEWMGIIYPGDSDVRYSPSFQGHVTISADKSISTAYLQWNSLKASDTAMYYCARLPQYCSKGVCYRWFDPWGQGTLVTVSS VL: EIVLTQSPSSVSASVGDRVTITCRASQGISSWLAWYQQKPGKAPKLLIYAASSLQSGVPSRFSGSGSGTDFTLTISSLQPEDFATYYCQQGHSFPYTFGQGTNLEIK	0.013	0.031	0.034	0.075	0.0101	0.0094	89.9	99.5	96.5	89.2	90.4	0.0219	0.0139	0.0088	0.0133	0.0278	0.236	0.119	
Reference Antibody (antibody, V domains shown) VH: EVQLVESGAEVKKPGESLKISCKGSGYTFTRYWIGWVRQMPGKGLEWMGIIYPGDSDTRYSPSFQGHVTISADKSISTAYLQWNSLKASDTAMYYCARLPQYCSNGVCQRWFDPWGQGTLVTVSS VL: EIVLTQSPSSVSASVGDRVTITCRASQGISSWLAWYQQKPGKAPKLLIYAASSLQSGVPSRFSGSGSGTDFTLTISSLQPEDFATYYCQQGNSFPYTFGQGTNLEIK		1.25	0.256	0.634			74.5	93.9	91.9		74.4	0.0941	0.0681	0.0261	0.0307	0.0314	7.45	0.528	0.337
